Reference: the DeepSol protein solubility set

Test: soluble on expression in E. coli; label from the status in PepcDB or PDB records

| Sequence | soluble on expression in E. coli |
| --- | --- |
| MKAVKATLMYDGLGNIEKNVYIIFDKDIVNITREKPKDVEVVAEGVVTPAFIDAHSHIGMDRYGEPYQESELNEQMDSVLPLADALYSIYMDDKAFKHSIEFGVLYSSILPGSGNIIGGKGVLIRNYGRDIEDAFIKYVGVKAAFGYNPRSTTNWKGLRPSTRMGAIGILFNWLIKTKKTISLLEKGKKDPEEIDPVIEALIPVLKGEMPLRVHAHKEDDIAVLLMIKRKFNLKVTVEHAADVHSKETFEKIKREGVPLVYGPLDAHPYKVELKHEDWKNAKYLLEVKPFFGLMSDHPFSIQANLYLQLRHFIRLGMSKAEAIKLITYNNAKILGIEDKLGSLEKGKWASLVVWNGDPFNLENYPTHVFAEGELIHEANL | soluble |
| MTSMDNSARGQRHNEFADSAARIEAANDMSISAGRDVINKGSVLESGRDMSIQAGRDVTIAPTEVTNSLFSDSKHNSSDITQLGSTASAGRDLTVQAGRDISVIASQIDAKRDIAMAATENLTISSAADEEHSLSKSKKLTRQEDHVSQIAADLDAGGSVALQAGQNLAVISSRITAGKEAYLVAGDQLDILAAQDSDYSLYDKKKKGSFGAKKTKRDEITDVKNIGSEITTGGDLLLASGGDQKYQVAKLESGKDLTIDSGGAVTFEGVKDLHQESHEKSKSDLAWNSSKGKGNTDETLRQSELVAKGELAIRAVEGLKIDIKQVDQQSVSQTIDAMVKADPQLAWLKEAELRGDVDWRQVKEVHDSLIGTAVNAAVVAGLTSATSQAVISTVNNKGNLGAALKDVTSAESMKGYLVSGLAAGFAAGILDPAYGVSPENTAKATHGFDLGSVDGFTNYAGYTLAQGGFSAAANTAINGGSLTDNLAQAAISSAADAMSAGIYNKLGTKLEFSGLPSKLAAHALVGGLIAELAGGDFRSGALAAGANEAFVNLVGDKIFVGESHDKLLAMTSQLVGLTVAAAAGGTDKDQAVAGWVAQQATTFNYLEHSEKEAFIKEMLGCDTDKCAREKWEQGKFDEDSQANVQYANDIAGSQRARETRDRVLDSLGSILDMNCPTSACEGYKQLLMERSLGTLKNLNQVIKDWASVDQRLGLMAGAAVGGQANYKCGSTASRSAGVDLEHHHHHH | soluble |
| MLSTLSKSARLNQTRFIRLSHSAAAAKDAKPKKVAAVDSPSFVMNLFRGKAVTDQVFPYPLNMTDEQKETLGMVMSPLEKMLVEVNDVVKNDETSDIPRAVLDQFAELGTFGVLVPPELEGSGFNNSQMARVAEIVGAYDLGFGVVMGAHQSIGYKGILLEGTDAQKQKYLPDLATGRKFAAFALTEPTTGSDASSVRTRAELSADGKHYVLNGGKIWISNGGFADVFTVFAQTPVKQADGSTKDKMSAFIVERAFGGVTSGPQEKKMGIKGSNTTEVHFDNLKIPVENLLGKEGEGFKVAMNILNNGRFGIPAACTGAMKHCIQKTVDHITTRVQFGKKLQEFGNIQEKLVEMISKLYATESIVYMLSSNMDRGIKEYQLEAAIGKVLASENAWLVCDDAIQVHGGMGFMRETGLERVLRDLRIFRIFEGANDVLRLFIALTGAQHAGKHLAEQASGVGGLIGLAVSRVTGGNTGSNFGQVVDASLQDSAKVLDQQIALFGQTVQGLLMKHKKGIIDRQYEMHRVADAAINIYSSAAVLSRATYAIKNKSSSADFERKVATYYVDKAMKSSNRFLKDAGSGVENASKVATIESLAKEVCGNGGLTLQHPVEL | not soluble |
| MATSMIQRLFKQGTKIVGVGLNYASHAKELGNALPKDPIVFLKPTSSYLENGGTIEIPHPLDSLHHEVELAVVIGQKARDVPERLAMNYIGGYALALDMTARELQVSAMASGLPCTLAKGQDTFTPISSVLPKAMVLDPNNLELWLKVDDETRQKGWTKDMIFKVPYLISYISSVMTLFKGDVILTGTPEGIGPVKIGQKITAGITGLSEVQFDVGRRLKPLLR | soluble |
| MKIQDLLKKEVMIMDLKATSKEAAIDEMITKLVDTGVVTNFAIFKDGIMKREAQTSTGLGDGIAMPHSKNAAVKEATVLFAKSASGVDYEALDGQPTDLFFMIAAPDGANDTHLAALAELSKYLLKEGFADQLRQAKTPDDIIATFDS | soluble |
| MLRRQMSFNGKSDMGILYLVPTPIGNLEDMTFRAIDTLKSVDAIAAEDTRQTKKLCHVYEIETPLVSYHEHNKESSGHKIIEWLKSGKNIALVSDAGLPTISDPGAEIVKDFTDIGGYVVPLPGANAALTALIASGIVPQPFFFYGFLNRQKKEKKKELEALKKRQETIIFYEAPHRLKETLSAMAEILGDREIAVTRELTKKYEEFIRGTISEVIGWANEDQIRGEFCLVVEGSNNEEVDEEEQWWETLTAKEHVEHYISKGATSKEAIKKAAVDRNVPKREVYDAYHIKQ | soluble |
| MIVRAINYESLHIDDRFGSIEELKTKISQKYGIPINSQHIIFNGKFYVLGIFDSPLTVSSDTYTNPLGCFGCPDSLFNDLAGNGMTTDEIREYAFPHKDDPAKREGPDLSSVIDTRAIAKRITENRYEDAYKIPNDLSEKEKTIIMESSGEYIDLVLKQIKEILRSNTKY | not soluble |
| MNDETPRCPYNSLYKPLNLIKSKPDGCFKHNGQCTYGKNLVESVDDGNSRTPYNSIYEPLSLNKPKPDGRSSNGKKPVDNEYVNLPVLSEEQKLADKLAAKLRKLEVKEPKSKKRGSKERKKKKSEPVESTYESLATIEGSTNYSGPVTTESLESNVKFHHASQTAYIGVYSSADAEAQVKNRGEFALYHLFEVGNGIDHLTATLPFGGLWIPNRSQTLLAQSTRSILQIVRIDSDETRGHLL | not soluble |
| MGSDKIHHHHHHMSIIFDKNLGILEKTIEEIQNEKKHILRTKYGINIKDNSIYDIINFPSSSIDKQISEVLKELFSKIKENGSYFNALKEDLSTPKSSTYEAIRKALLNVEGVKHINILSGPGTINLYLILQDDCFQDQEKKQIKIETKQNIWQAIYYTAPSGTVFKGDIEIEFLNKHNQKKTYKFSLGKKKYAYLKVVYKTEAKDAIYKEIDTQIRDIYNKILTDKYIEMGTSLRYQDFLAPVSIIRGIKELKIGICIKNDETKKITQLSDSDFTFNKDENTKEDEIIIFNTNKRLLINRE | not soluble |
| MLRSIICNMCNLSDESKQFEMTPPSSNLSSLFPTGRAVRNPFGKVYFVVILKGKAMVRIDGKSMLLLERTFLFLPPGHLLLRLSCTQDFLFQYLSFSFDFLSDFPLLLKADISNQVTNAPCLPMSPEDFSLIKMYYHFIYHRYLDAECPSEVIKGMLFSLVLEVCRMYSGRNISVEMSRQDKLVDGFFSLLHKYCTQERMAAFYASRLCISDKYLMRSIKKQTGQTFHYWMADFILREAKLMLRSTDLSVTEIADKLSFPNSSSFARFFRKYTGFSPVQFRNEA | not soluble |
| MSQKEQIKTYKGPAGGWGALKAVTRSWWGSENAVKNIRTMLKTNQNGGFDCPGCAWGESPDSGKVNFCENGAKAVNWEATNRLVDPEFFANHSVSSLSTQTDYWLEYQG | not soluble |
| MKLIGIVGSNADSSYNRLLLQYIGKEFYKMFDLEILEIKDIPMFNQSKDQTNSVLIQNMNRKILQADGVIIATPEHNHTIPAGLKSVLEWLSFKIHPLENKPVMIVGCSYYDQGTSRAQLHLRQILDAPGVNAIVMPGNEFLLGKAKEAFDENGNLIAEGTRQFLESTLQKFVEFIDVISKLEGAKPKDLPEDLHAKGTIETTIEGVDMAADDWVEQAAEAVQAVEGDTYVKLDRGILTVDQLNYFLKSMPMELTYADSNNQFLYYNKKMAAEEMFAKRQPGQVGNPLANCHPPKALKNVEWVIQQLRSGKTDAIRVHVPMHGPDTYVVHNYQAMYDDNGNYAGINEYILDFKPIVDWYLKQTGQELVGGKNVDAVSGASKKEAPETADSVSSASVHEEESATEKPTVDSVSSASIKE | not soluble |
| MIKYARQIYSTKQEVIMATYFSDNLTADQQNQVQQIIQQFQHPTLQKDLIVLNTLKKVEKGGDTLRIELQLPFAWNSGAEQLKQAVSDALLKATDCKLIKWAVAYQIATLKRANNQPAVKGVKNIIAVSSGKGGVGKSSVSVNLALALQAQGARVGILDADIYGPSIPHMLGAADQRPTSPDNQHITPIKAHGLSANSIGFLMNEDSATIWRGPMASSALSQLLNETLWDSLDYLVIDMPPGTGDIQLTLSQQIPVTGAVVVTTPQDIALLDAVKGISMFERVSVPVLGIVENMSMHICSECGHHEAIFGTGGAEKMAEKYNVKVLAQLPLHIRIREDLDAGNPTVVRVPENEISQAFLQLAEKVSTELYWQGSVIPSEILFKEVKLEHHHHHH | soluble |
| MSAAGVRSTRQRAAISTLLETLDDFRSAQELHDELRRRGENIGLTTVYRTLQSMASSGLVDTLHTDTGESVYRRCSEHHHHHLVCRSCGSTIEVGDHEVEAWAAEVATKHGFSDVSHTIEIFGTCSDCRS | soluble |
